The test system of this data set is syndecan-4 cytoplasmic tail peptide with a phosphorylated Ser (S4c-P).

Take Recombinant PKCα: the “phosphorylation level of the PKCβ1 optimal substrate peptide by PKCα, in the presence of PIP2” value was “the phosphorylation level of the substrate was similar to that obtained with PIP2 alone”.

The values above are taken from patent US6815187.
